{"source": "paper PMC2119551", "target": "aFGF receptors on the surface of NBT-II cells (rat (endogenous in NBT-II))", "assay": "radioligand binding", "data": [{"substance": "Human recombinant acidic FGF (from UniProt P05230 1-155) (ligand)", "values": [{"measurement": "cpm bound (cells preincubated with 100 ng/ml pertussis toxin)", "value": 11800, "unit": "cpm"}, {"measurement": "cpm bound (cells preincubated with 10 ug/ml cholera toxin)", "value": 13600, "unit": "cpm"}, {"measurement": "cpm bound (cells preincubated with 100 uM forskolin)", "value": 14300, "unit": "cpm"}, {"measurement": "cpm bound (untreated cells)", "value": 12700, "unit": "cpm"}]}]}
